Experimental data from paper PMC2886305 (Molecular cell, 2010).
Where no end group is shown, it is not given here.

Legend:
[1] = tested on: CBX7 chromodomain (CBX7CD); experiment: fluorescence anisotropy; conditions: not given in material (buffer, salt, pH and temperature in supplement)
[2] = target: H3K9me3 peptide of the fluorescence anisotropy assay; experiment: fluorescence polarisation
[3] = target: T1, CBX7CD (Mus musculus, UniProt Q8VDS3); format: binding; conditions: fluorescence anisotropy, fluorescein-labeled peptide; measured in triplicate
T1 sequence (Q8VDS3 11-69 limits assumed): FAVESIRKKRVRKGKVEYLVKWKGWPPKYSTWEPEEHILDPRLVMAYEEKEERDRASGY

[4] = tested on: RNA Pol II (ANRIL transcription), PC3 nuclei; experiment: In vitro transcription of ANRIL from PC3 whole nuclei; format: cell-based, human; conditions: [α-32P]-UTP incorporation
[5] = tested on: CBX7 at INK4b/ARF/INK4a locus, PC3 cells; experiment: ChIP of CBX7 occupation in PC3 cells treated with α-amanitin; format: cell-based, human; conditions: whole PC3 cell treatment, 10 μg/ml, relative to histone H3
[6] = tested on: INK4b/ARF/INK4a locus, PC3 cell nuclei; experiment: Quantitative ChIP of PC3 nuclei after RNase A; format: cell-based, human
[7] = target: T2, CBX7 chromodomain ( (human or mouse cDNA cloned), UniProt Q8VDS3 1-71); experiment: fluorescence polarisation
T2 sequence: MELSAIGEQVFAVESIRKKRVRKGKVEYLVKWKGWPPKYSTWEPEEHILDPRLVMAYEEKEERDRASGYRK

[8] = RNase A treatment of PC3 cell nuclei

ANRIL loop A RNA
Kd [1]: 13.7 µM

ANRIL loop B RNA
Kd [1]: 30.2 µM

ANRIL loop C RNA
Kd [1]: 14.6 µM

CBX7 chromodomain (from UniProt Q8VDS3 1-71) (domain or fragment)
Kd [2]: 16.5 µM

H3K9me3: H3K9me3 peptide (histone H3 methylated at lysine 9)
Kd [3]: 16.5 ± 0.8 µM

α-amanitin
sensitivity of nascent ANRIL transcription [4]: shows sensitivity to α-amanitin | CBX7 levels (ChIP) [5]: depleted levels of CBX7

B1: RNase A: ribonuclease A (protein, UniProt P61823 27-150, looked up)
Ribonuclease pancreatic: KETAAAKFERQHMDSSTSAASSSNYCNQMMKSRNLTKDRCKPVNTFVHESLADVQAVCSQKNVACKNGQTNCYQSYSTMSITDCRETGSSKYPNCAYKTTQANKHIIVACEGNPYVPVHFDASV
site occupation by CBX7, PHC2, Bmi1 and Suz12 [6, 8]: dramatically reduced | total levels of H1 and H3 [6, 8]: remained about the same | levels of trimethylated H3K27 and ubiquitinated H2AK119 ([6]; RNase A treatment, at CBX7 occupation sites): greatly reduced

APRKQLATKAARK(Me3)SAP (also: fluorescein label (position not given here)) [fluorescein-labeled H3K27me3 peptide]
Kd [7]: 59 ± 4.7 µM
